Experimental findings from patent JPH09322796A (dated 1997) are described below.

First the molecules themselves.
B1: マウス抗ヒトFasモノクローナル抗体CH11 (mouse anti-human Fas monoclonal antibody CH11, purified from hybridoma culture supernatant) (antibody, mouse IgM)
heavy: EVQLQQSGPELVKPGASVKISCKASGYTFTDYNMHWVKQSHGKSLEWIGYIYPYNGGTGYNQKFKSKATLTVDNSSSTAYMELRSLTSEDSAVYYCARSYYAMDYWGQGTSVTVSSESQSFPNVFPLVSCESPLSDKNLVAMGCLARDFLPSTISFTWNYQNNTEVIQGIRTFPTLRTGGKYLATSQVLLSPKSILEGSDEYLVCKIHYGGKNRDLHVPIPAVAEMNPNVNVFVPPRDGFSGPAPRKSKLICEATNFTPKPITVSWLKDGKLVESGFTTDPVTIENKGSTPQTYKVISTLTISEIDWLNLNVYTCRVDHRGLTFLKNVSSTCAASPSTDILTFTIPPSFADIFLSKSANLTCLVSNLATYETLNISWASQSGEPLETKIKIMESHPNGTFSAKGVASVCVEDWNNRKEFVCTVTHRDLPSPQKKFISKPNEVHKHPPAVYLLPPAREQLNLRESATVTCLVKGFSPADISVQWLQRGQLLPQEKYVTSAPMPEPGAPGFYFTHSILTVTEEEWNSGETYTCVVGHEALPHLVTERTVDKSTGKPTLYNVSLIMSDTGGTCY
light: DVVMTQSPLSLPVSLGDQASISCRSSKSLVHSNGNTYLHWYLQKPGQSPKLLIYKVSNRFSGVPDRFSGSGSGTDFTLKISRVEAEDLGVYFCSQSTHVPPAFGGGTKLEIKRADAAPTVSIFPPSSEQLTSGGASVVCFLNNFYPKDINVKWKIDGSERQNGVLNSWTDQDSKDSTYSMSSTLTLTKDEYERHNSYTCEATHKTSTSPIVKSFNRNEC
chain: DDEATILADNKCMCTRVTSRIIPSTEDPNEDIVERNIRIVVPLNNRENISDPTSPLRRNFVYHLSDVCKKCDPVEVELEDQVVTATQSNICNEDDGVPETCYMYDRNKCYTTMVPLRYHGETKMVQAALTPDSCYPD
B2: pJEX004のみで形質転換したCOS−1細胞の培養上清[D] (CH11 J chain expressed alone) (other)
chain: B1 chain
B3: 上清[F](pHEX126、pLEX004+pJEX004)に含まれる生産物 (recombinant CH11 H chain + L chain + J chain, COS-1 culture supernatant) (antibody)
heavy: B1 heavy
light: B1 light
chain: B1 chain
B4: pLEX004のみで形質転換したCOS−1細胞の培養上清[C] (CH11 L chain expressed alone) (other)
light: B1 light
B5: 上清[E](pHEX126+pLEX004)に含まれる生産物 (recombinant CH11 H chain + L chain without J chain, COS-1 culture supernatant) (antibody)
heavy: B1 heavy
light: B1 light
B6: pHEX126のみで形質転換したCOS−1細胞の培養上清[B] (CH11 H chain expressed alone) (other)
heavy: B1 heavy

For the first assay, the target named is T1, Fas抗原 on the human lymphocyte cell line HPB−ALL (human, UniProt P25445 26-335).
T1 sequence (looked up): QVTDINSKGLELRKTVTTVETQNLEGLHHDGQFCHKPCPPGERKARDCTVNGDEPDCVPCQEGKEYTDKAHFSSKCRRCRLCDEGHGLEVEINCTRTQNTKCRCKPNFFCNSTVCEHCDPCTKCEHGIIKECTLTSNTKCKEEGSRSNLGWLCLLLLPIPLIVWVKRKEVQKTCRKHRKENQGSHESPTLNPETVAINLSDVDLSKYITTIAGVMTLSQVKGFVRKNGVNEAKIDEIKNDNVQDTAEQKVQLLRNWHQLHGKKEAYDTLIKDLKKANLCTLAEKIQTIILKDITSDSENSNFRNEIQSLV
Kind of assay: cell-based or functional assay.
On to B1, for which the “ED 50 (ng/ml) (MTT assay, HPB-ALL cells))” value worked out at 21.2 ng/mL.

Consider B2, for which the “OD 590 −OD 620 (MTT assay, HPB-ALL cells, 12 h; higher = more living cells)” value is 0.883.

Consider B3, for which the “ED 50 (ng/ml) (MTT assay, HPB-ALL cells))” value is 22.9 ng/mL and the “OD 590 −OD 620 (MTT assay, HPB-ALL cells, 12 h; higher = more living cells)” value is 0.242.

With B4, the “OD 590 −OD 620 (MTT assay, HPB-ALL cells, 12 h; higher = more living cells)” value was 0.887.

As to B5, the “cytotoxic activity relative to CH11 or to the product of supernatant [F]” value was about 5 fold; the “ED 50 (ng/ml) (MTT assay, HPB-ALL cells))” value is 4.5 ng/mL; the “OD 590 −OD 620 (MTT assay, HPB-ALL cells, 12 h; higher = more living cells)” value was determined as 0.176.

On to B6, for which the “OD 590 −OD 620 (MTT assay, HPB-ALL cells, 12 h; higher = more living cells)” value came to 0.876.

For the next assay, the target named is ヒトFas抗原の細胞外領域とマウスインターロイキン3受容体の細胞外領域との融合タンパク質 (fusion of human Fas extracellular region and mouse IL-3 receptor extracellular region, from phFas-AIC2) (human; mouse) (UniProt P25445). Kind of assay: ELISA, COS-1 supernatant with human Fas-mouse IL-3 receptor fusion coated, detection with peroxidase-labelled rat anti-mouse IgM; PBS blank 0.104.
Turning to B1, the OD 405 −OD 492 was 0.445.

Molecule B2 had a OD 405 −OD 492 of 0.107.

Molecule B3 came in with a OD 405 −OD 492 of 0.202.

As for B4, the OD 405 −OD 492 was determined as 0.135.

The molecule B5 had a OD 405 −OD 492 of 0.33.

Regarding B6, the OD 405 −OD 492 was determined as 0.109.
